Source: patent publication US20260069656A1, “Nutritive Polypeptides and Formulations Thereof, and Methods of Production and Use Thereof” (Axcella Health Inc., priority 2013, published 2026)

Columns and labels:
[1] = Intact half-life during simulated gastric fluid (SGF) digestion
[2] = Pancreatin-based in vitro digestion, free amino acids by RP-HPLC
Method: In this method, pancreatin, a mixture of enzymes, is used to simulate intestinal proteases. Specifically, the digestion of polypeptides into amino acids was analyzed by an in vitro Pancreatin-based digestion assay followed by free amino acid analysis using reversed phase HPLC (RP-HPLC). The nutritive polypeptide was added to SGF (0.92 g/L Pepsin (Sigma), 0.03 M NaCl titrated with HCl to pH 1.5) at a final concentration of 4 g/L and incubated at 37° C. for 120 min. After 120 min, Na2CO3 was added to a final concentration of 16 mM to quench the pepsin reaction. […] Time points were sampled from the reaction and quenched by heating to 95° C. for 5 min. Control samples were protease-free.
Analyses were performed using an Agilent 1100 series system. Primary amino acids were derivitized pre-column at room temperature, online, using o-phthalaldehyde (OPA). The OPA-derivatives were separated using the Zorbax Eclipse-AAA 4.6×150 mm, 3.5 μm column at 40° C. The separation gradient transitioned from 100% 40 mM Na2HPO4 pH 7.8 to 65% acetonitrile/methanol/water mixture (45/45/10) over 23 minutes. Analytes were detected by fluorescence at 340 nm Ex/450 nm Em.

[3] = Solubility of proteins (lyophilized/reconstituted or ultrafiltered); details: produced in E. coli unless otherwise noted
Method: Solubility. […] Protein samples were dried by lyophilization on a FreeZone Freeze Dry System (Labconco) using the manufacturer's standard protocol and then resuspended in buffer to the desired concentration. Centrifugal and tangential ultrafiltration were used to selectively remove buffer from the protein sample until the desired concentration was reached. Centrifugal ultrafiltration of protein solutions was performed by centrifugation (10,000×g) of 10 mg of protein in an Amicon centrifugal filter (Millipore) with a molecular weight cutoff of 3 kDa, 10 kDa, or 30 kDa, depending on the protein size, until the desired contrentration was reached. Ultrafiltration of protein solutions was performed on Hydrosart ultrafiltration cassettes (Sartorius Stedim, Bohemia, NY) with a molecular weight cutoff of 3 kDa, 10 kDa, or 30 kDa, depending on the protein size, at a cross flow rate of 12 L/m2/min. For most processes, transmembrane pressure was maintained at 20 psi and performed until the desired contrentration was reached.
The protein concentration of the above samples was measured by one or a combination of the following methods: Coomassie Plus Protein Assay, absorbance at 280 nm (A280), and total amino acid analysis. Coomassie Plus Protein Assays (Pierce) were performed according to the manufacturer's protocol. Absorbance at 280 nm was measured on a Nanodrop 2000 UV-Vis spectrophotometer. Protein concentration was determined using the A280 value and molar extinction coefficient, which was calculated by primary amino acid sequence using ProtParam (Gasteiger, Elisabeth, et al. The proteomics protocols handbook. Humana Press, 2005. 571-607.). Total amino acids were analyzed by HPLC after acid hydrolysis as described in Henderson, J. W., et al. Agilent Technologies (2010).

[4] = SGF digest of the 168 nutritive polypeptide library, intact protein by LC-MS/MS spectral counts; format: in vitro ADME; details: proteins detected in the 168 nutritive polypeptide library
Method: Nutritive polypeptide intact half-life determination in a complex mixture. The in vitro intact half-life of multiple polypeptides in a complex mixture was determined using the simulated gastric in vitro digestion described above. Briefly, the 168 nutritive polypeptide library was generated as described herein by cloning, transforming, and expressing a gene library encoding 168 proteins as a single mixture. The recombinantly expressed proteins were purified from host cell proteins by IMAC purification as described herein.
The 168 Protein Library was treated with SGF as described above and the t=0 and t=10 min samples were analyzed for intact protein by LC-MS/MS. To begin, 10 μg of sample was loaded onto a 10% SDS-PAGE gel (Invitrogen) and run approximately 5 cm into the gel. The gel was excised into ten fractions from 100 kD to the dye front and the gel slices were processed by washing with 25 mM ammonium bicarbonate, followed by acetonitrile. Gel fractions were then reduced with 10 mM dithiothreitol at 60° C., followed by alkylation with 50 mM iodoacetamide at room temperature. Finally, the samples were digested with trypsin (Promega) at 37° C. for 4 h and the digestions were quenched with the addition of formic acid. The samples were then analyzed by nano LC/MS/MS using an EasynLC 1000 HPLC system interfaced to a ThermoFisher Q Exactive. Peptides were loaded on a trapping column and eluted over a 75 μm analytical column at 350 nL/min; both columns were packed with PepMap C18 3 μm resin (ThemoFisher). A 1 hour gradient was employed. The mass spectrometer was operated in data-dependent mode, with MS and MS/MS performed in the Orbitrap at 70,000 FWHM resolution and 17,500 FWHM resolution, respectively. The fifteen most abundant ions were selected for MS/MS. Data were searched against an appropriate database using Mascot to identify peptides. Mascot DAT files were parsed into the Scaffold software for validation, filtering and to create a nonredundant list per sample. Data were filtered at 1% protein and peptide false discovery rate (FDR) and requiring at least two unique peptides per protein. A full list of detected proteins and their spectral counts (SpC) was generated and reported as a function of each collected gel fraction. SpC are a count of the number of spectra identified for a given protein and are used as a measure of relative protein abundance (Liu, H. et al., Analytical Chemistry 2004, 76:4193-4201). To calculate the percentage of intact protein remaining at the 10 min time point of the SGF digest the number of SpC representative of intact peptide in the t=10 min sample were divided by the number of SpC representative of intact peptide in the t=0 min sample. The number of SpC representative of intact peptide was defined as the sum of the SpC in the fraction with the highest number of SpC assigned to that protein in the t=0 min sample and the two flanking fractions.

[5] = pH solubility screen in Citric Acid / Dibasic Sodium Phosphate buffers; format: physicochemical
Method: pH Solubility. […] Protein was either lyophilized and then resuspended in buffer cocktail mixtures, or concentrated and then spiked into buffer cocktail mixtures at a final protein concentration of 5 to 30 mg/ml. As a control, protein was also dissolved in a solution of 8 M urea. Protein solutions were shaken for 10 min at room temperature. Turbidity of proteins was determined by measuring the absorbance of protein solutions at 650 nm. The protein solution was then centrifuged for 10 min at 1100×g to pellet undissolved or precipitated protein. The soluble protein fraction (supernatant) was sampled and protein concentration was measured by one or more of the following methods: Coomassie Plus Protein Assay (Pierce), Chip electrophoresis, gel electrophoresis, and/or absorbance at 280 nm. The pH range over which select proteins remained greater than 80% soluble as determined by Bradford and the A650 value are listed in Table E31C.

[6] = Thermostability, ProteoStat Thermal Shift Stability Kit, temperature of aggregation; format: physicochemical; details: NS = protein not soluble
How it was run: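 Proteins at ~10 mg/ml in citric acid/dibasic sodium phosphate buffer, pH 2.8 to 7.1, with ProteoStat TS detection reagent. Heated 25 °C to 95 °C at 0.5 °C per 30 sec, fluorescence monitored with a Texas Red filter.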

[7] = after 120 min SGF, Pancreatin SIF pH 6.5
[8] = SGF pH 1.5, pepsin:polypeptide 1:20 w/w, 37° C., produced in E. coli unless otherwise noted

B1: Heat-denatured SEQID-00363: SEQID-00363 diluted to 30 g/L in 10% PBS and rapidly heated to 95° C. (protein)
chain: ATLDSWLSNEATVARTAILNNIGADGAWVSGADSGIVVASPSTDNPDYFYTWTRDSGLVLKTLVDLFRNGDTSLLSTIENYISAQAIVQGISNPSGDLSSGAGLGEPKFNVDETAYTGSWGRPQRDGPALRATAMIGFGQWLLDNGYTSTATDIVWPLVRNDLSYVAQYWNQTGYDLWEEVNGSSFFTIAVQHRALVEGSAFATAVGSSCSWCDSQAPEILCYLQSFWTGSFILANFDSSRSGKDANTLLGSIHTFDPEAACDDSTFQPCSPRALANHKEVVDSFRSIYTLNDGLSDSEAVAVGRYPEDTYYNGNPWFLCTLAAAEQLYDALYQWDKQGSLEVTDVSLDFFKALYSDAATGTYSSSSSTYSSIVDAVKTFADGFVSIVETHAASNGSMSEQYDKSDGEQLSARDLTWSYAALLTANNRRNSVVPASWGETSASSVPGTCAATSAIGTYSSVTVTSWPSIVATGGTTTTATPTGSGSVTSTSKTTATASKTSTSTSSTSCTTPTAVAVTFDLTATTTYGENIYLVGSISQLGDWETSDGIALSADKYTSSDPLWYVTVTLPAGESFEYKFIRIESDDSVEWESDPNREYTVPQACGTSTATVTDTWR
modifications: heat-denatured; Aspergillus niger
Which results are given for B1?
SGF Half-life (t½) ([1]; native and modified SEQID-00363, gel electrophoresis): 1220 s; Free Leu (μM) at 120 min time point of Pancreatin digest ([2]; native and modified SEQID-00363): 763.5 µM

B2: SEQID-00423: nutritive polypeptide (protein)
chain: VNGTLMQYFEWYTPNDGQHWKRLQNDAEHLSDIGITAVWIPPAYKGLSQSDNGYGPYDLYDLGEFQQKGTVRTKYGTKSELQDAIGSLHSRNVQVYGDVVLNHKAGADATEDVTAVEVNPANRNQETSEEYQIKAWTDFRFPGRGNTYSDFKWHWYHFDGADWDESRKISRIFKFRGEGKAWDWEVSSENGNYDYLMYADVDYDHPDVVAETKKWGIWYANELSLDGFRIDAAKHIKFSFLRDWVQAVRQATGKEMFTVAEYWQNNAGKLENYLNKTSFNQSVFDVPLHFNLQAASSQGGGYDMRRLLDGTVVSRHPEKAVTFVENHDTQPGQSLESTVQTWFKPLAYAFILTRESGYPQVFYGDMYGTKGTSPKEIPSLKDNIEPILKARKEYAYGPQHDYIDHPDVIGWTREGDSSAAKSGLAALITDGPGGSKRMYAGLKNAGETWYDITGNRSDTVKIGSDGWGEFHVNDGSVSIYVQK
modifications: Bacillus Amyloliquefaciens
For B2, which “Free Leu (μM) at 120 min time point of Pancreatin digest” value [2, 7] is on record?
The value was 587.1 µM.

What about the “Solubility” value [3] of the same molecule?
The value was 193 mg/mL.

B3: SEQID-00485: nutritive polypeptide naturally produced in Chickpea, recombinantly expressed in E. coli (protein, listed as Cicer arietinum)
chain: MTKTGYINAAFRSSRNNEAYLFINDKYVLLDYAPGTSNDKVLYGPSFVRDGYKSLAKTIFGTYGIDCSFDTEYNEAFIFYENFCARIDYAPHSDKDKIISGPKKIADMFPFFKGTVFENGIDAAFRSTKGKEVYLFKGDKYARIDYLTNRLVQNIKSISDGFPCLRGTIFEAGMDSAFASHKTNEAYLFKGEYYARINFTPGSTNDIMGGVKKTLDYWPSLRGIIPLE
Which “% Remaining at 10 min” value [4] does the source give for B3 here?
The value was 0%.

What about the “pH Range where Protein is >80% detected as Soluble and A650 <1 OD: Low” value ([5]; lower pH of range) of the same molecule?
Its value is 4.6.

What about the “pH Range where Protein is >80% detected as Soluble and A650 <1 OD: Other” value ([5]; other pH where soluble) of the same molecule?
The value was 2.8.

And the “pH Range where Protein is >80% detected as Soluble and A650 <1 OD: High” value ([5]; upper pH of range)?
Its value is 7.1.

What about the “Tagg pH 5.0” value ([6]; pH 5.0) of the same molecule?
Its value is 31.5.

What about the “Tagg pH 5.6” value ([6]; pH 5.6) of the same molecule?
The value was 34.5.

What about the “Tagg pH 6.0” value ([6]; pH 6.0) of the same molecule?
Its value is 36.

What about the “Tagg pH 6.5” value ([6]; pH 6.5) of the same molecule?
The value was 36.5.

What about the “Tagg (pH 7.1)” value ([6]; pH 7.1, heated 25° C. to 95° C.) of the same molecule?
The value was 36.

And the “SGF Half-life (t½)” value [1, 8]?
The value was 30 s.

And the “Half-life” value ([1]; purified proteins, chip electrophoresis, SGF)?
Its value is 30 s.

And the “Solubility” value [3]?
Its value is 99 mg/mL.

B4: SEQID-00341: nutritive polypeptide (protein, listed as Saccharomyces cerevisiae)
chain: MSTSREDSVYLAKLAEQAERYEEMVENMKTVASSGQELSVEERNLLSVAYKNVIGARRASWRIVSSIEQKEESKEKSEHQVELICSYRSKIETELTKISDDILSVLDSHLIPSATTGESKVFYYKMKGDYHRYLAEFSSGDAREKATNASLEAYKTASEIATTELPPTHPIRLGLALNFSVFYYEIQNSPDKACHLAKQAFDDAIAELDTLSEESYKDSTLIMQLLRDNLTLWTSDMSESGQAEDQQQQQQHQQQQPPAAAEGEAPK
modifications: strain ATCC 204508 / S288c
With B4 as the molecule, how does the “SGF Half-life (t½)” value [1, 8] read?
Its value is 12 s.

What about the “Free Leu (μM) at 120 min time point of Pancreatin digest” value [2, 7] of the same molecule?
The value was 1143.5 µM.

And the “Solubility” value [3]?
Its value is 166 mg/mL.

B5: SEQID-00425: nutritive polypeptide (protein, listed as Kluyveromyces lactis)
chain: MSCLIPENLRNPKKVHENRLPTRAYYYDQDIFESLNGPWAFALFDAPLDAPDAKNLDWETAKKWSTISVPSHWELQEDWKYGKPIYTNVQYPIPIDIPNPPTVNPTGVYARTFELDSKSIESFEHRLRFEGVDNCYELYVNGQYVGFNKGSRNGAEFDIQKYVSEGENLVVVKVFKWSDSTYIEDQDQWWLSGIYRDVSLLKLPKKAHIEDVRVTTTFVDSQYQDAELSVKVDVQGSSYDHINFTLYEPEDGSKVYDASSLLNEENGNTTFSTKEFISFSTKKNEETAFKINVKAPEHWTAENPTLYKYQLDLIGSDGSVIQSIKHHVGFRQVELKDGNITVNGKDILFRGVNRHDHHPRFGRAVPLDFVVRDLILMKKFNINAVRNSHYPNHPKVYDLFDKLGFWVIDEADLETHGVQEPFNRHTNLEAEYPDTKNKLYDVNAHYLSDNPEYEVAYLDRASQLVLRDVNHPSIIIWSLGNEACYGRNHKAMYKLIKQLDPTRLVHYEGDLNALSADIFSFMYPTFEIMERWRKNHTDENGKFEKPLILCEYGHAMGNGPGSLKEYQELFYKEKFYQGGFIWEWANHGIEFEDVSTADGKLHKAYAYGGDFKEEVHDGVFIMDGLCNSEHNPTPGLVEYKKVIEPVHIKIAHGSVTITNKHDFITTDHLLFIDKDTGKTIDVPSLKPEESVTIPSDTTYVVAVLKDDAGVLKAGHEIAWGQAELPLKVPDFVTETAEKAAKINDGKRYVSVESSGLHFILDKLLGKIESLKVKGKEISSKFEGSSITFWRPPTNNDEPRDFKNWKKYNIDLMKQNIHGVSVEKGSNGSLAVVTVNSRISPVVFYYGFETVQKYTIFANKINLNTSMKLTGEYQPPDFPRVGYEFWLGDSYESFEWLGRGPGESYPDKKESQRFGLYDSKDVEEFVYDYPQENGNHTDTHFLNIKFEGAGKLSIFQKEKPFNFKISDEYGVDEAAHACDVKRYGRHYLRLDHAIHGVGSEACGPAVLDQYRLKAQDFNFEFDLAFE
What does the source list for B5?
SGF Half-life (t½) [1, 8]: 18 s; Free Leu (μM) at 120 min time point of Pancreatin digest [2, 7]: 713.1 µM; Solubility [3]: 190 mg/mL
